# Measured values from patent US20230074134A1, “METHOD FOR PREPARING SOY LEGHEMOGLOBIN USING ESCHERICHIA COLI” (iNtRON Biotechnology, Inc., priority 2020, published 2023).
# B1: soy leghemoglobin (protein)
# chain: MGAFTEKQEALVSSSFEAFKANIPQYSVVFYTSILEKAPAAKDLFSFLSNGVDPSNPKLTGHAEKLFGLVRDSAGQLKANGTVVADAALGSIHAQKAITDPQFVVVKEALLKTIKEAVGDKWSDELSSAWEVAYDELAAAIKKAF
# modifications: heme cofactor; Soy leghmoglobin
# Test system: iron-deficiency-anemia-induced animals
# Assay type: in vivo, Sprague-Dawley rats (female)
# Description: The composition containing soy leghemoglobin prepared according to the present invention was administered to iron-deficiency-anemia-induced animals, whereby the effectiveness of the composition containing soy leghemoglobin on alleviating anemia was evaluated. Specifically, after 2 weeks acclimation period, thirty 9-week old Sprague-Dawley rats (female) were divided into 3 groups of 10 rats per group, among which one group was fed with normal feed in an amount of 10% of body weight daily for one month (Group 1; control), and the remaining two groups were fed with iron-deficient feed in an amount of 10% of body weight daily for 6 weeks to induce iron-deficiency anemia (Group 2 and Group 3). After 6 weeks of feeding, it was confirmed that iron-deficiency anemia was induced in the individual rat belonging to Group 2 and Group 3. Then, one of the anemia-induced groups was orally administered once a day with saline alone (Group 2), and the other anemia-induced group was orally administered once a day with solution containing soy leghemoglobin (0.1 mg Fe/500 μl solution, Group 3). The administration continued for 5 weeks. During 5 weeks of administration to Group 2 and Group 3, Group 1 was continuously fed with normal feed, and Group 2 and Group 3 were fed with iron-deficient feed. […] After 5 weeks of administration, blood was collected, and whether anemia was alleviated was evaluated.
# [1] = iron-deficient feed, oral once a day, 0.1 mg Fe/500 μl solution, 5 weeks, blood collected after 5 weeks
molecule,measurement,setting,value
B1,Alleviation of iron-deficiency anemia (conclusion),"anemia-induced rats, 5 weeks oral administration",effective at alleviating iron-deficiency anemia
same,Weight of rats on 5 weeks after administration,"iron-deficient feed, oral once a day, 0.1 mg Fe/500 μl solution, 5 weeks, anemia-induced female Sprague-Dawley rats",369.3 ± 1.1 g
same,Blood test Hematocrit,[1],31.8 ± 1.9%
same,Blood test Hemoglobin content,[1],14.2 ± 0.4 g/dL
